Measured values from patent US20170157251A1 (MacroGenics, published 2017).

Columns and labels:
human CD19 on cells = target: T1, human CD19 on cells (human, UniProt P15391 20-556); assay: flow cytometry on human blood leukocytes, CD20+ gate (B cells); detection with biotinylated anti-E-coil/K-coil mAb and streptavidin-PE
T1 construct: whole, on cells; also called CD19 on human CD20+ B cells; CD19 on Raji/GF, HBL-2, Jeko-1 cells
T1 sequence (looked up): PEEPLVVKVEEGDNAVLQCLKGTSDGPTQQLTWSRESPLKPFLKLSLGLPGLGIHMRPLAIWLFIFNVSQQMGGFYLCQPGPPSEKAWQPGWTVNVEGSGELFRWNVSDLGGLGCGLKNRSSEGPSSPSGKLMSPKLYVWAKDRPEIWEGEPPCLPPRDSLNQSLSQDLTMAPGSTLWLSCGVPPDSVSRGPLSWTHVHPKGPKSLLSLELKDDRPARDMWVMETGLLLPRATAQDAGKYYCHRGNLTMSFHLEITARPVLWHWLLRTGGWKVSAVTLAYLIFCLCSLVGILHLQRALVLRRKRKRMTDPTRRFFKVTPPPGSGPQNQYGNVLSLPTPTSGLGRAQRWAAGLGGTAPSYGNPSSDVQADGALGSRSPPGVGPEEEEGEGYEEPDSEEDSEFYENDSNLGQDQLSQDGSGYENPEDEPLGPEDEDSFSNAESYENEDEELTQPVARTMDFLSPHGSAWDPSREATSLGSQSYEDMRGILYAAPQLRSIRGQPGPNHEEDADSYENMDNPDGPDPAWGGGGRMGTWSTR

human CD3 on T cells = target: T2, human CD3 on T cells (human, UniProt P07766 23-207; P04234 22-171); assay: flow cytometry on human blood leukocytes, CD4+ and CD8+ gate (T cells); detection with biotinylated anti-E-coil/K-coil mAb and streptavidin-PE
T2 construct: also called CD3 on human CD4+ and CD8+ T cells; copies: 1 + 1

[1] = target: T3, soluble human CD19-biotin (human, UniProt P15391 20-291, limits assumed, biotin (site not stated)); assay: bifunctional (bispecific) ELISA: plate coated with soluble human CD3ε/δ, DART titrated, detected with soluble human CD19-biotin
T3 construct: Detection antigen of the bifunctional ELISA
T3 sequence (looked up): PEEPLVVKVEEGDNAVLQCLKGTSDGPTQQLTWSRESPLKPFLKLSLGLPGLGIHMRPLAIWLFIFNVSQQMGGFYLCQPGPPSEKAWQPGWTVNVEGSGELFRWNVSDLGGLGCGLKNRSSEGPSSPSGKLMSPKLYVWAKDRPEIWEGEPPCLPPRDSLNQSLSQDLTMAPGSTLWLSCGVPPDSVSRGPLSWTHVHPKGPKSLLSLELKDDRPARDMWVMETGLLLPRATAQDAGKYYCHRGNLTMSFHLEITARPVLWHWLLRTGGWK

[2] = target: T4, cynomolgus monkey CD3 on T cells (cynomolgus monkey, UniProt Q95LI5 22-198; Q95LI8 22-171); assay: flow cytometry on cynomolgus monkey blood leukocytes, CD4+ and CD8+ gate (T cells); detection with biotinylated anti-E-coil/K-coil mAb and streptavidin-PE
T4 construct: T cells were gated as CD4+ and CD8+; also called CD3 on cynomolgus monkey CD4+ and CD8+ T cells
T4 sequence (Q95LI5 22-198 limits assumed, chain 1 of 2): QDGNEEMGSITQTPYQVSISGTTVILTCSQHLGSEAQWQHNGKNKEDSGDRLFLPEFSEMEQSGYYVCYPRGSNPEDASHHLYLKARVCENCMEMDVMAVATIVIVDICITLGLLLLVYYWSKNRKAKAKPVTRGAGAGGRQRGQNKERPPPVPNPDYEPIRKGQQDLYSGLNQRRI
T4 sequence (Q95LI8 22-171 limits assumed, chain 2 of 2): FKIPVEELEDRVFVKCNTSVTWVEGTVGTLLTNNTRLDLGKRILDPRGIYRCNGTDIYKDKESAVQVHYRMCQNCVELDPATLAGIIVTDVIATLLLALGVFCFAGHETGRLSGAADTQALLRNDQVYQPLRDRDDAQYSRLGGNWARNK

T2 sequence (P07766 23-207 limits assumed, chain 1 of 2): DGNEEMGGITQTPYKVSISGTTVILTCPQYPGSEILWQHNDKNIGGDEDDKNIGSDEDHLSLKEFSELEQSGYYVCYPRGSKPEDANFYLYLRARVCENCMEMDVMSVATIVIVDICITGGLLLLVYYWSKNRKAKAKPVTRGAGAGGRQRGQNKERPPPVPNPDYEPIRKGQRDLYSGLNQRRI
T2 sequence (P04234 22-171 limits assumed, chain 2 of 2): as the sequence (Q95LI8 22-171 limits assumed, chain 2 of 2) above, with V5I, K15N, V20I, T32S, N33D, N34I, A64T, N74S, L83V, R141H counted along it

B1: Control DART 1 (Fluorescein×CD3) (bispecific antibody)
chain 1: DVVMTQTPFSLPVSLGDQASISCRSSQSLVHSNGNTYLRWYLQKPGQSPKVLIYKVSNRFSGVPDRFSGSGSGTDFTLKISRVEAEDLGVYFCSQSTHVPWTFGGGTKLEIKGGGSGGGGEVQLVESGGGLVQPGGSLRLSCAASGFTFSTYAMNWVRQAPGKGLEWVGRIRSKYNNYATYYADSVKGRFTISRDDSKNSLYLQMNSLKTEDTAVYYCVRHGNFGNSYVSWFAYWGQGTLVTVSSASTKGEVAACEKEVAALEKEVAALEKEVAALEKGGGDKTHTCPPCPAPEAAGGPSVFLFPPKPKDTLMISRTPEVTCVVVDVSHEDPEVKFNWYVDGVEVHNAKTKPREEQYNSTYRVVSVLTVLHQDWLNGKEYKCKVSNKALPAPIEKTISKAKGQPREPQVYTLPPSREEMTKNQVSLWCLVKGFYPSDIAVEWESNGQPENNYKTTPPVLDSDGSFFLYSKLTVDKSRWQQGNVFSCSVMHEALHNHYTQKSLSLSPGK
chain 2: QAVVTQEPSLTVSPGGTVTLTCRSSTGAVTTSNYANWVQQKPGQAPRGLIGGTNKRAPWTPARFSGSLLGGKAALTITGAQAEDEADYYCALWYSNLWVFGGGTKLTVLGGGGSGGGGEVKLDETGGGLVQPGRPMKLSCVASGFTFSDYWMNWVRQSPEKGLEWVAQIRNKPYNYETYYSDSVKGRFTISRDDSKSSVYLQMNNLRVEDMGIYYCTGSYYGMDYWGQGTSVTVSSASTKGKVAACKEKVAALKEKVAALKEKVAALKE
chain 3: not shown
notes: other arm is anti-fluorescein 4-4-20
Human CD19 on cells
  binding result: no binding (tested: about 80 nM)
Human CD3 on T cells
  binding result: binds
[1]
  binding result: no binding (tested: about 5 µg/ml)
[2]
  binding result: binds
